From patent US20110294144 come the findings set out here.

The data set has as its system recombinant tau protein (Wako Pure Chemical Industries, Ltd.).

Take recombinant PRKX protein (Invitrogen): the “S214 phosphorylation of tau, in vitro kinase reaction of the two recombinant proteins, Western blot” value is “the amount of S214 phosphorylation was enhanced by the addition of ATP as compared to the control without addition of ATP”.
